For two molecules, geometric mean of the fluorescence intensity results are on record in patent US20120003149A1.

Assay [1] has as its target full-length human GPR87 with an N-terminal FLAG tag, stably expressed on CHO cells (human). Kind of assay: flow cytometry, hGPR87 stable expression CHO cell line, antibody at 1 µg/mL (no primary antibody: 18.36). In general terms: A flow cytometer gives signals particle by particle.
The target is the same in assay [2]. Kind of assay: flow cytometry, hGPR87 stable expression CHO cell line, antibody at 10 µg/mL (no primary antibody: 18.36).
For assay [3] the target is unchanged. Kind of assay: flow cytometry, hGPR87 stable expression CHO cell line, antibody at 0.1 µg/mL (no primary antibody: 18.36).
Assay [4] shares this target. Kind of assay: flow cytometry, hGPR87 stable expression CHO cell line, antibody at 0.01 µg/mL (no primary antibody: 18.36).
Assay [5] addresses human GPR87 (G protein-coupled receptor 87), endogenously expressed in Me180 cells (human). Kind of assay: flow cytometry, Me180 cells transfected with control siRNA, antibody at 1 µg/mL (no primary antibody: 10.71).
Assay [6] shares this target. Kind of assay: flow cytometry, Me180 cells transfected with control siRNA, antibody at 10 µg/mL (no primary antibody: 10.71).
Assay [7] shares this target. Kind of assay: flow cytometry, Me180 cells transfected with control siRNA, antibody at 0.1 µg/mL (no primary antibody: 10.71).
The target is the same in assay [8]. Kind of assay: flow cytometry, Me180 cells transfected with siRNA against GPR87 (expression suppressed to 5.9% at the RNA level), antibody at 1 µg/mL (no primary antibody: 10.16).
Assay [9] has the same target. Kind of assay: flow cytometry, Me180 cells transfected with siRNA against GPR87 (expression suppressed to 5.9% at the RNA level), antibody at 10 µg/mL (no primary antibody: 10.16).
Assay [10] has the same target. Kind of assay: flow cytometry, Me180 cells transfected with siRNA against GPR87 (expression suppressed to 5.9% at the RNA level), antibody at 0.1 µg/mL (no primary antibody: 10.16).

human GPR87 (G protein-coupled receptor 87), endogenously expressed in Me180 cells (human), sequence (chain, as listed by the source): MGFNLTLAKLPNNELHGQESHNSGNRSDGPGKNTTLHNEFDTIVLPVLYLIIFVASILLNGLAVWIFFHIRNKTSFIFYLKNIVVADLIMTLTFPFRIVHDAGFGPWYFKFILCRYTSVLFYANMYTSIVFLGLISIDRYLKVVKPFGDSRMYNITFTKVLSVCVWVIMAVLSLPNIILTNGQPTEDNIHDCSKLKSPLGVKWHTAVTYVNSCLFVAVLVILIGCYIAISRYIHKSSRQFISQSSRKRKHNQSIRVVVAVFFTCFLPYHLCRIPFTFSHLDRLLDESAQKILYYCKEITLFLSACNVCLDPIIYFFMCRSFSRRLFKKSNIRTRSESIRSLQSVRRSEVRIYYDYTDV
full-length human GPR87 with an N-terminal FLAG tag, stably expressed on CHO cells (human), sequence (chain, as listed by the source): as above

B1: C0804 antibody (antibody, V domains shown)
VH: QIQLVQSGPELKKPGETVKISCKVSGYTFTDYSMHWVKQAPGKGLKWMAWINTETGKPTYADDFKGRFAFSLEASASTAYLQINNLKNEDTATYFCASLDYWGQGTTLTVSS
VL: DVLMTQTPLSLPVSLGDQASISCRSSQNVVHSSGNTYLEWFLQKPGQSPKLLIYKVSTRFSGVPDRFSGSGSGTDFTLKISRVEAEDLGVYYCFQGSHVPYTFGGGTKLEIKR
Regarding B1, the geometric mean of the fluorescence intensity is 578 in assay [1]; 1240 in assay [2]; 110 in assay [3]; 28.9 in [4]; 24.6 in assay [5]; 63.5 in assay [6]. Besides, the geometric mean of the fluorescence intensity in assay [7] came to 12.9; in assay [8], 12.9; in assay [9], 20.6; in assay [10], 10.3.

B2: C0815 antibody (antibody, V domains shown)
VH: QIQLVQSGPELKNPGETVKISCKVSGYTFTDYSMHWVKQAPGKGLKWMAWINTETGKPTYADDFKGRFAFSLETSASTAYLQINTLKNEDTATYFCASLDYWGQGTTLTVSS
VL: DVLMTQTPLSLPVSLGDQASISCRSSQNVVHSSGNTYLEWFLQKPGQSPKLLIYKVSNRFSGVPDRFSGSGSGTDFTLKISRVEAEDLGVYYCFQGSHVPYTFGGGTKLEIKR
Take B2: the geometric mean of the fluorescence intensity in [1] was 496; in assay [2], 1290; in assay [3] it was 91.6; in [4] it was 26.9; in [5], 28.8; in assay [6] it was 60.5. Moreover, the geometric mean of the fluorescence intensity is 13.3 in assay [7], 13.6 in [8], 22.4 in assay [9] and 10.1 in assay [10].
